Data reported in the nanobody polyreactivity screen of Harvey et al. (2022).

Assay: yeast display, Sf9 membrane polyspecificity reagent, FACS + sequencing; frameworks hold sequencing errors
Procedure, shortened: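 After 36–48 hours of galactose induction, yeast (Saccharomyces cerevisiae BJ5465) displaying a synthetic nanobody library were stained at 4 °C for 1 hour with 10% biotinylated, detergent-solubilized Sf9 membrane reagent. Streptavidin microbeads enriched the stained cells before FACS sorting into low and high (top ~1%) gates on anti-HA and streptavidin fluorescence. Each clone's polyreactivity label reflects its gate of origin.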

| Sequence | polyreactivity (PSR sort gate) |
| --- | --- |
| QVQLVESGGGIVQAGGSLRLSCAASVFTFRANTMGWYRPAPGKERELVAAISPSGGSTYYADSVKGRFTISRDNAKNTVYLQMNSLKPEDTAVYYCNADIEYRPGHGRLGDYDYWGQGTQVTVSS | low polyreactivity |
| QVQLVESGGGIVQAGGSLRLSCPASGFIGVNGMGWYIQAPGKERELVAAISSGGSTNYADSVKGRFTMSRDNAKNTVYLQMNSLKPEDTAVYYCAKDFLLDSFYHTYRYRYDYWGQGTQVTVSS | low polyreactivity |
| QVQLVESGGGIVQAGGSLRLSCSASGFSFSSYAMGWYRQAPGKERELVASITWSGGRTYYADSVKGRFTISRDNAKNTVYLQMNSLKPEDTAVYYCAPGDVNWSYSLLYTVVLFDSWGQGTQVTVSS | high polyreactivity |
| QVQLVESGGGIVQAGGSLRLSWAASGFIFNNYAMGWYRQAPGKERELVAAITGGGSTNYADSVKGRFTISRDNAKNTVYLQMNSLKPEDTAVYYCNAEGVWWSTRYDSWGQGTQVTVSS | low polyreactivity |
| QVQLVESGGGIVQAGGSLRLSWAASGSINYRNARGCYRQAPGKERELVAAISSDGSTNYADSVKGRFTISRDNAKNTVYLQMNRLKPEDTAVYSCASPWTQILDYWGKGTQVTVSS | low polyreactivity |
| QVQLVESGGGIVQAGGSLRLTCAASGSIFVNNAIGWYIQAPGKERELVADIRRSGGNTYYADSVKGRFTISRDNAKNTVYLQMNSLKPEDTAVYYCNVVRRADSIRAKSRDYWGQGTQVTVSS | high polyreactivity |
| QVQLVESGGGIVQAGGSLRLTCAASGSTFEIYAMGWYRQAPGKERELVAAISSGGSTNYADSVKGRFTISRDNAKNTVYLQMNSLKPDDTAVYDCAAVLYSRLYWYRLDYWGQGTQVTVSS | low polyreactivity |
| QVQLVESGGGIVQAGGSLRLTCAASGYIFYSYAMGWYRHAPGKERELVATISSGGSTYYADSVKGRFTISRDNAKNTVYFQMNSLKPEDTAVYYCATDHDIVYNFNRYDYWGQGTQVTVSS | low polyreactivity |
| QVQLVESGGGIVQAGGSLRVSCAASGRTYLRNAMGWSRQAPGKERELVASITSRGGRTYADSVKGRFTISRDNAKNTVYLQMNSLKPEDTAVYYCDARRQAGLRYDYWGQGTQVTVSS | high polyreactivity |
| QVQLVESGGGIVQSGGSLRLICAASGGIFKYNAMGWYRQAPGKERELVAAINYSGGRTYYADSVKGRFTISRDNAKNTVYLQMNSLKPEDTAVYYCNALTRGHTGQPYTYDYWGQGTQVTVSS | high polyreactivity |
| QVQLVESGGGLAQAGGSLRLSCAASGSTFYSYAMGWYRQAPGKERELVAGITWNDGSTYYADSVKGRFTISRDNAKNTVYLQMNSLKPEDTAVYYCNTDASPYLFDYWGHGTQVTVSS | low polyreactivity |
| QVQLVESGGGLDAAGGSLRLSCAASGSTVIAYAMGWYRQAPGKEWELVAVMTSRGGRTYYADSVKGRFTISRDNAKNTVYLQMNSQKPEDTAVYYCATRSYRYLRSYDYWGQGTQVTVSS | high polyreactivity |
| QVQLVESGGGLDHAGGSLRLSCADSGRIFNYNAMGWYIQAPGKESELVAAISWDGGSTYYADSVKGRFTISRDNAKNTVYLQINSLKPEDSAVYYCAAQYIWSSYRYYYWGQGTQVTVSS | high polyreactivity |
| QVQLVESGGGLDHAGGSLRLSCAPSGRIFSVNAMGWYRQAPGKERELVAAITSGDSTNYADSVKGRFTISRDNAKNTVYLQSNSMKQEDTAVYYCNARGSQELWRRKWYHTEYDSWGQGTQVSVSS | low polyreactivity |
| QVQLVESGGGLDHARGSLRLICPASGRTFAPYAMGWYRQAPGKERELVARITWSGTDTYYADSVKGRFTISRDNAKNTVYLQMNCLKPDDTAVYYCAADARYSRRYYYWGQGTQVTVSS | low polyreactivity |
| QVQLVESGGGLDQAGCSLRLSCAASGRIFPYMGWYRQAPGKDRELVAAINASGGRTYYADSVKGRFTISRDNAKNTVYLQMNSLKPEDTAVYYCNAVWSSDTYTHPQYDYWGQGTQVTVSS | high polyreactivity |
| QVQLVESGGGLDQAGCSLRLSWAASGITSYYNAMGWYRQAPGKERELVAAITSGGSTYYADSVKGRFTISRDNAKNTVYLQMNSLKPEVTAVYYCARRSRYLWRYDYWGQGTQVTVSS | high polyreactivity |
| QVQLVESGGGLDQAGGRLRLSCAASGITFGRNTMGWYRQSPGKERELVAAIDSGGNTYADSVKGRFTISRDNAKNTVYLQMNSLKPEDTAVYYCAVDGGEFSSYGYWGQGTQVTVSS | low polyreactivity |
| QVQLVESGGGLDQAGGSLLLSCAASGSIFNDYAMGWYRQAPGKERELVAAISTSDGSTYYADSVKGRFTISRDNAKNTVYLQMKSLKPEDTAVYYCAVVSDYYYYPPYGYWGQGTQVTVSS | low polyreactivity |
| QVQLVESGGGLDQAGGSLPLRCAATGSIFHDYALGWYSQAPGKERELVAVISTSGGSTYYADSVKGRFTISRDNAKNTVYLQMNSLKPEDTAVYYCNAELSFWALGYDYWGQGTQVTVSS | low polyreactivity |
| QVQLVESGGGLDQAGGSLRLICAASGFTITNNAMGWYRQAPGKEREFVAAISASGGSTYYADSVKGRFTISRDNAKNTVYLQMNSLKPEDTAVYYCAVEPVYIVSEVLFDYWGQGTEVTVSS | low polyreactivity |
| QVQLVESGGGLDQAGGSLRLICAASGFTYPIYAMGWYRQAPGKERELVAAITTRGGRTYYADSVKGRFTISRDNAKNTVYLQMNSLKAEDTAVYYCNALGYAYRLWFGYWGEGTQVTVSS | high polyreactivity |

| Sequence | polyreactivity (PSR sort gate) |
| --- | --- |
| QVQLVESGGGLDQAGGSLRLICAASGITIEYYAMAWYRTAPGKERELVAAISSGGGSTYYADSVKGRFTISRDNAKNSVYLQMISLKPEDTAVYYCAADIVSSPSSYVPPGDYWGQGTQVTVSS | low polyreactivity |
| QVQLVESGGGLDQAGGSLRLRCAASGRNFRWYTMVWYRQAPGKEREFVAAITWSDTSTSYADSVKGRFTISRDNAKNTVYLQMNSLIPEYTAVYYCNAGDKVSSYWYDYWGQGTQVNVSS | low polyreactivity |
| QVQLVESGGGLDQAGGSLRLSCAASGFIFDYYAMGWYRQAPGKERELVAAISWDGDSTNYADSVKGRFTISRDNAKNTVYLQMNSLKPEDTAVYYCNADEQLVDGWFFRYDYWGQGTQVTVSS | low polyreactivity |
| QVQLVESGGGLDQAGGSLRLSCAASGFIYPVYTMGGYRQAPGKERELVAAITQIGGSTHYADTVKGRFTISRDNAKNTVYLQMNSLKPDETAVYYCNAVPSYGTEYDYWGHGTQVTVSS | low polyreactivity |
| QVQLVESGGGLDQAGGSLRLSCAASGFTFPWYPMGWYRQAPGKEREMVAAISTGGSTDYADSVKGRFTISRDNAKNTVYLKMNILKPEDTAVYYCNAGYWVRKYYHGGYWGQGTQVTLSS | high polyreactivity |
| QVQLVESGGGLDQAGGSLRLSCAASGFTFRFYAIGWYRQAPGKERELVAAIDTSGGRTYYADSVKGRFTISRDNANNTVYLQMNSLKPEDTAVYYCNAQVLYRYDYWGQGTQVTVSS | high polyreactivity |
| QVQLVESGGGLDQAGGSLRLSCAASGFTFWYYAMGWYRQAPGKERYLVATISSSGGSTYYADSVKGRFTISRDTAMNTVYLQMNSLKPEDTAVYYCNADDNPVWEYDYWGQGTLVTVSS | low polyreactivity |
| QVQLVESGGGLDQAGGSLRLSCAASGFTFYWYAMGWYRQAPGKEREFVAAIDQSGGSTYYADSVKGRFTISRDNAKNNVYLQMNSLKPEDTAVYYCAKLYNIGYDYWGLGTQVTVSS | low polyreactivity |
| QVQLVESGGGLDQAGGSLRLSCAASGFTLYRNAMGWYRQAPGKERELVAAITSSGGRTYYADSVKGRFTISRDNAKYTVYLQMNSLKPEDTAVYYCAAEFGLGYYYWGQGTQVNVSS | high polyreactivity |
| QVQLVESGGGLDQAGGSLRLSCAASGFTSYENAMGSYRQAPGKERELVAAITWDGGSTYYADSVKGRFTISRDNAKNTVYFQMNSLKPEDTAVYYCAARQVVYYAYTFDYWGQGTQVTVSS | low polyreactivity |
| QVQLVESGGGLDQAGGSLRLSCAASGFTSYKYSRGWYRQAPGKETELVAASTGSGSRTFYADSVKGRFTISRDNAKNSFYLLMNSLKPEDTADYYCAARRPLYPERDYWGHGTQVTVSS | high polyreactivity |
| QVQLVESGGGLDQAGGSLRLSCAASGIFGVNTMGWYRQAPGKERELVASITSGGSTNYADSVKGRFTISRDNAKNTVYLQMNSLKPEDTAVYYCAAGLYLQGPFDYWGQGTQVTVSS | low polyreactivity |
| QVQLVESGGGLDQAGGSLRLSCAASGIIFSQYAMGWYRQAPGKERELVAGITRSGGSTYYADSVKGRFTISRDNAKNTVYLQMNSLKPEDTAVYYCAAVQRYEYGYWGQGTQVTVSS | high polyreactivity |
| QVQLVESGGGLDQAGGSLRLSCAASGITFTFNAMGWYRQAPGKERELVAAISSTTSTKYADSVKGRFTISRDNAKYTVYLQMNSLKPEDTAVYYCAAVEFELRGDYWGQGTQVTVSS | low polyreactivity |
| QVQLVESGGGLDQAGGSLRLSCAASGITFYGYAMGWYRQAPGKEREFVAVITSTARTNYADSVKGRFTISRDNAKNTVYLQMNSLKPEDTAVYYCAARRVVRRDRYGSMDYWGQGTQVTVSS | high polyreactivity |
| QVQLVESGGGLDQAGGSLRLSCAASGITLTANAMGWYRQSPGTERELVAAISRGGSTYYADSVKGRFTISRDNAKNTVYLQMNSVKPEDTQVFYCNKAGGYWYAKRDYDYWGQGTQVTVSS | high polyreactivity |
| QVQLVESGGGLDQAGGSLRLSCAASGITLTNNAMGWYRQAPGKERELVAAITRSGGSTYYADSVKGRFTISRDNAKNTVYLQMNSLKPEDTAVYCAARWYSYSGSIRSYDYCGQGTQVTVSS | low polyreactivity |
| QVQLVESGGGLDQAGGSLRLSCAASGLIFRRYAMGWYRQAPGKEREFVAAIRWNGGTTYYADSVKGRFTISRDNAKYTVYLQMNSLKPEDTAVYYCAARVYPAYPRGYDYWGQGTQVTVSS | high polyreactivity |
| QVQLVESGGGLDQAGGSLRLSCAASGLIFYYYALGWYRQAPGKERELVAAISSRGSSTYYADSVKGRFTISRDNAKKTVYLQMNSLKPEDTAVYYCAADSVRKYFGYDYWGQGTQVTVSS | high polyreactivity |
| QVQLVESGGGLDQAGGSLRLSCAASGLTFAKYAMGWYRQAPGKERELVAAIRSGDDTTYADSVKGRFTISRDNAKNTVYLQMNSLKPEDTAVYYCAARYYRTWHGGFGYWGQGTQVTVSS | high polyreactivity |
| QVQLVESGGGLDQAGGSLRLSCAASGLTFATYAMGWYRQAPGKERELVAAINGRGASTNYADSVKGRFTISRDNAKNTVYLKMNSLKPEDTAVYYCASRLYRRNKYVLFDYWGQGTQVTVSS | high polyreactivity |
